Test results: patent US20230272056A1 (Merck Sharp & Dohme, published 2023)

Assays:
[1] = biological target: human LAP-TGFβ1 expressed on P3U1 cells (human, UniProt P01137 30-390); assay: cell-based or functional assay
[2] = biological target: T1, human LAP-TGFB1 Fc fusion (human); assay: SPR pH 6.0, antigen captured on Fab 54BLH
T1 construct: also called human LAP-TGFβ1-Fc; human LAP-TGFβ-Fc isoform 1
Description: A Series S C1 sensor chip (Cytiva, catalog BR100535) was immobilized with low densities of high affinity Fab 54BLH on a Biacore T200 instrument with 1×HBS-EP+(Teknova, catalog H8022). This surface served as a monovalent capture surface for a low-density layer of heterodimer human LAP-TGFβ1 complex leaving the second binding site exposed for monovalent kinetic binding analysis with both mAbs and Fabs. Immobilized flow cell 1 served as the reference and flow cells 2, 3 and 4 were used to evaluate the binding interaction between human LAP-TGFβ1 and yeast display mutant mAbs and Fabs.
Approximately 15-25 RU of human LAP-TGFβ1-Fc was captured to the Fab capture surface followed by injection of 1:3 serially diluted Fabs and mAbs from 6 nM to 0.07 nM (Fabs: 54BLH, 55BLH, 60BLH, 63BLH, 64BLH-mAbs: 69BLH, 70BLH) and 1:3 serially diluted Fab and mAbs from 60 nM to 0.74 nM (Fabs: 59BLH, 66BLH, 67BLH—mAbs: 74BLH, 75BLH, 78BLH, 79BLH, 81BLH, 82BLH) including 0 nM. The binding data was double referenced by subtraction of signal from a reference flow cell and the 0 nM injections for evaluation of Fabs and mAbs respectively. Binding rate constants were calculated/determined by fitting the data with a 1:1 binding model (Cytiva Biacore T200 Evaluation software 3.0).

[3] = biological target: T2, human LAP-TGFB2 Fc fusion (human); assay: SPR
T2 construct: also called human LAP-TGFβ2; LAP-TGFβ isoform 2
T2 sequence (chain, as listed by the source limits assumed): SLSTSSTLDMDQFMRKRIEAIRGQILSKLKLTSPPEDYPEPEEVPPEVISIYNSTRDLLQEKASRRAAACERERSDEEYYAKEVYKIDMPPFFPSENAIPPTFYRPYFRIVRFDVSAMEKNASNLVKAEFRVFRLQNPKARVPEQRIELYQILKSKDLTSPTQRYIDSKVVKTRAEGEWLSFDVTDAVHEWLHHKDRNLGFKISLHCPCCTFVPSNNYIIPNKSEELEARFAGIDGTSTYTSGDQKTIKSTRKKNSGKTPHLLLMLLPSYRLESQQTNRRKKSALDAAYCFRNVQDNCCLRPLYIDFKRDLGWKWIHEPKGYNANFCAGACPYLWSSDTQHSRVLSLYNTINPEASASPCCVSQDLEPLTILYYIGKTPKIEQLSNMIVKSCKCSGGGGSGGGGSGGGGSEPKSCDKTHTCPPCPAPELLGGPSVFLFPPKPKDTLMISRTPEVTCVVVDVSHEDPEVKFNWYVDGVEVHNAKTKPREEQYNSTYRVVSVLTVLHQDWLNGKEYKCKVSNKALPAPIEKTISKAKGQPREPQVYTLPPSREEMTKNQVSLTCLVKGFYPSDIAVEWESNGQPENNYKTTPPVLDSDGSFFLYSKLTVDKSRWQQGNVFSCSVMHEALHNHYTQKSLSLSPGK
Description: (§1) This Example describes the isoform specificity of the yeast display mutants to bind to human LAP-TGFβ isoforms 1, 2, and 3 using surface plasmon resonance. A Series S CM4 sensor chip (GE Healthcare, catalog BR100534) was immobilized with an anti-human Fc capture antibody following the kit protocol (GE Healthcare, catalog BR100839) on a Biacore T200 instrument with 1× HBS-EP+ (Teknova, catalog H8022). […] Binding specificity experiments between human LAP-TGFβ isoforms 2 and 3 and yeast display mutants were performed in 1× HBS-EP+ with 0.1 mg/mL BSA at 25° C. Approximately 20-40 RU amounts of human LAP-TGFβ2 and 3 were captured to the anti-human Fc surface followed by injection of 1000 nM Fab including a negative control 0 nM Fab. The binding data were double referenced by subtraction of signal from a reference (capture surface only) flow cell and the negative control 0 nM Fab injection. Binding rate constants were determined by fitting the data with a 1:1 binding model (GE Healthcare Biacore T200 Evaluation software 3.0).

[4] = biological target: T3, human LAP-TGFB3 Fc fusion (human); assay: SPR
T3 construct: also called human LAP-TGFβ3; LAP-TGFβ isoform 3
T3 sequence (chain, as listed by the source limits assumed): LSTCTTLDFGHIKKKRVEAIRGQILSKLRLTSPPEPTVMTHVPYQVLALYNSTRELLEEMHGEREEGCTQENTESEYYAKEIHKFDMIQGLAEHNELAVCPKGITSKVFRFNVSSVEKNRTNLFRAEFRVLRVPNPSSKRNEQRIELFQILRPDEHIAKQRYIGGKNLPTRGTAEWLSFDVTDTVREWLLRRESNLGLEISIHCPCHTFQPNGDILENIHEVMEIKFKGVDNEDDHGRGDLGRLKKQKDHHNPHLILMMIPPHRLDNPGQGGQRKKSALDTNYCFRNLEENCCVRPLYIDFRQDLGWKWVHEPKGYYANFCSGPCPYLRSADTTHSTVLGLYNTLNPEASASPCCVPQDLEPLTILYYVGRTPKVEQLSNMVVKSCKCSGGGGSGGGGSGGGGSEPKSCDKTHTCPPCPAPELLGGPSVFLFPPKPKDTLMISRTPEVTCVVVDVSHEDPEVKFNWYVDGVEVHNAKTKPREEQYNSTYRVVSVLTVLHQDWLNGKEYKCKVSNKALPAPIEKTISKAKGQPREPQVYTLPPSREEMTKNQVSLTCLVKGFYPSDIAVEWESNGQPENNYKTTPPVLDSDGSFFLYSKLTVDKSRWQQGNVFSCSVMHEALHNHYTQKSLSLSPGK
Description: as §1

[5] = biological target: T1, human LAP-TGFB1 Fc fusion; assay: SPR, antigen-Fc captured, Fab analyte
Description: as §1

Sequence of human LAP-TGFβ1 expressed on P3U1 cells (P01137 30-390): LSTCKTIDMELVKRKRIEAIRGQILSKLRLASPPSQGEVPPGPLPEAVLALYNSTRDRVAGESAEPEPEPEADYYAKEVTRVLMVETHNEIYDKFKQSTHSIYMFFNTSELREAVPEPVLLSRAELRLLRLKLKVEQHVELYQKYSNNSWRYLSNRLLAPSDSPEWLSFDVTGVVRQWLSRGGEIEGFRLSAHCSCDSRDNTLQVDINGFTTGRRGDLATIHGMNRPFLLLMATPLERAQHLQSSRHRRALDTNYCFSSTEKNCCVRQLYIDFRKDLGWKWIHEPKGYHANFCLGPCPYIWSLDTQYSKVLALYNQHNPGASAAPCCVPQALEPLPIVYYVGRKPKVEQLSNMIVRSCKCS
T1 sequence (chain, as listed by the source limits assumed): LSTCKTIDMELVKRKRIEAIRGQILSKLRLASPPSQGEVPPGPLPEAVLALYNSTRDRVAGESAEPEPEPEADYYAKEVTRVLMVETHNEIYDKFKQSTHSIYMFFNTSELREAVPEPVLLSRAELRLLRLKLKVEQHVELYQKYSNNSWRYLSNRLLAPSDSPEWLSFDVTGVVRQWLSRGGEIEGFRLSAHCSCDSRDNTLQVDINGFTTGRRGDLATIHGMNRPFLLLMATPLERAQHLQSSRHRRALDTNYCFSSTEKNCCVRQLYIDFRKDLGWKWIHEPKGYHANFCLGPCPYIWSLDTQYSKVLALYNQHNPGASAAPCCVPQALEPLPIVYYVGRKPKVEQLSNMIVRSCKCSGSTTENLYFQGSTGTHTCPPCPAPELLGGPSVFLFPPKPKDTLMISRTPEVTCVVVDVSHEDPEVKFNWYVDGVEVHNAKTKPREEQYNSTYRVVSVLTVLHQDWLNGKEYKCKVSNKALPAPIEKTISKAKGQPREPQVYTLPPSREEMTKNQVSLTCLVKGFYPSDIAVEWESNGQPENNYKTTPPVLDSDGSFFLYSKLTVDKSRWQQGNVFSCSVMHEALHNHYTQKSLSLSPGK

B1: 13BLM (antibody, human IgG1, kappa, L234A L235A, V domains shown)
VH: EVQLVQSGAEVKKPGASVKVSCKASGYTFTSYDMHWVRQAPGQGLEWMGRIDPQTGDIKYAQKFQGRATLTVDTSTSTAYMELSRLRSDDTAVYYCARWDYGGQFDVWGQGTLVTVSS
VL: DIQMTQSPSSLSASVGDRVTITCRASQDIYNYLNWYQQKPGKAVKLLIYYTSGLETGVPSRFSGSGSGTDYTLTISSLQPEDFATYFCQQGDTLPWTFGQGTKLEIKR
- Average EC50 [1]: 0.092 µg/mL
- ELISA assay 2 EC50 [1]: 0.105 µg/mL
- ELISA assay #1 EC50 [1]: 0.0785 µg/mL

B2: 06BLM (antibody, human IgG1, L234A L235A, V domains shown)
VH: EVQLVQSGAEVKKPGASVKVSCKASGYTFTSYDMHWVRQAPGQGLEWMGRIDPQSGGIRYAQKFQGRATLTVDTSTSTAYMELSRLRSDDTAVYYCARWDYGGQFDVWGQGTLVTVSS
VL: DIQMTQSPSSLSASVGDRVTITCRASQDIYNYLNWYQQKPGKAVKLLIYYTSILETGVPSRFSGSGSGTDYTLTISSLQPEDFATYFCQQGDTLPWTFGQGTKLEIK
notes: IgG1 L234A L235A D265S/kappa; also called 69BLH; 42BMD
- Average EC50 [1]: 0.125 µg/mL
- ELISA assay 2 EC50 [1]: 0.137 µg/mL
- ELISA assay #1 EC50 [1]: 0.113 µg/mL
- Fab/mAb KD Ratio [2]: 1.9
- Kd [2]: 0.0114 nM
- koff [2]: 6.18e-05 s⁻¹
- kon [2]: 5.43e+06 M⁻¹ s⁻¹

B3: 20BLM (antibody, human IgG1, kappa, L234A L235A, V domains shown)
VH: EVQLVQSGAEVKKPGASVKVSCKASGYTFTSYDMHWVRQAPGQGLEWMGRIDPQSGGEKYAQKFQGRATLTVDTSTSTAYMELSRLRSDDTAVYYCARYDYGGYFDVWGQGTLVTVSS
VL: DIQMTQSPSSLSASVGDRVTITCRASQDIYNYLNWYQQKPGKAVKLLIYYTSRLETGVPSRFSGSGSGTDYTLTISSLQPEDFATYFCQQGDTLPWTFGQGTKLEIKR
- Average EC50 [1]: 0.033 µg/mL
- ELISA assay 2 EC50 [1]: 0.008 µg/mL
- ELISA assay #1 EC50 [1]: 0.0574 µg/mL

B4: 14BLM (antibody, human IgG1, kappa, L234A L235A, V domains shown)
VH: EVQLVQSGAEVKKPGASVKVSCKASGYTFTSYDTHWVRQAPGQGLEWMGRIDPQSGGIKYAQKFQGRATLTVDTSTSTAYMELSRLRSDDTAVYYCARWDYGGYFDVWGQGTLVTVSS
VL: DIQMTQSPSSLSASVGDRVTITCRASQDIYNYLNWYQQKPGKAVKLLIYYTSYLETGVPSRFSGSGSGTDYTLTISSLQPEDFATYFCQQGDTLPWTFGQGTKLEIKR
- Average EC50 [1]: 0.158 µg/mL
- ELISA assay 2 EC50 [1]: 0.146 µg/mL
- ELISA assay #1 EC50 [1]: 0.169 µg/mL

B5: 17BLM (antibody, human IgG1, kappa, L234A L235A, V domains shown)
VH: EVQLVQSGAEVKKPGASVKVSCKASGYTFTSYDMHWVRQAPGQGLEWMGRIDPQSGGIKYAQKFQGRATLTVDTSTSTAYMELSRLRSDDTAVYYCARWDYGGYFDVWGQGTLVTVSS
VL: DIQMTQSPSSLSASVGDRVTITCRASQDIYNYLNWYQQKPGKAVKLLIYYTSRLETGVPSRFSGSGSGTDYTLTISSLQPEDFATYFCQQGDELPWTFGQGTKLEIKR
- Average EC50 [1]: 0.063 µg/mL
- ELISA assay 2 EC50 [1]: 0.089 µg/mL
- ELISA assay #1 EC50 [1]: 0.0357 µg/mL

B6: 60BJN (Fab, V domains shown)
VH: EVQLVQSGAEVKKPGASVKVSCKASGYTFTSYDMHWVRQAPGQGLEWMGRIDPQSGGEKYAQKFQGRATLTVDTSTSTAYMELSRLRSDDTAVYYCARYDYGGYFDVWGQGTLVTVSS
VL: DIQMTQSPSSLSASVGDRVTITCRASQDIYNYLNWYQQKPGKAVKLLIYYTSRLHSGVPSRFSGSGSGTDYTLTISSLQPEDFATYFCQQGDTLPWTFGQGTKLEIKR
notes: also called VH W33D I58E W99Y / VL T30Y (60BJN)
- binding result [3]: no binding (tested: 1000 nM Fab)
- binding result [4]: no binding (tested: 1000 nM Fab)
- Fold improvement in KD [5]: 31 fold
- Kd [5]: 2.57 nM
- koff [5]: 0.00653 s⁻¹
- kon [5]: 2.54e+06 M⁻¹ s⁻¹

B7: 61BJN (Fab, V domains shown)
VH: EVQLVQSGAEVKKPGASVKVSCKASGYTFTDYDMHWVRQAPGQGLEWMGRIDPQSGDHDYAQKFQGRATLTVDTSTSTAYMELSRLRSDDTAVYYCARYDHGGYFDVWGQGTLVTVSS
VL: DIQMTQSPSSLSASVGDRVTITCRASQDIYNYLNWYQQKPGKAVKLLIYYTSRLHSGVPSRFSGSGSGTDYTLTISSLQPEDFATYFCQQGDTLPWTFGQGTKLEIKR
notes: also called VH S31D W33D G57D I58H K59D W99Y Y101H / VL T30Y (61BJN)
- binding result [3]: no binding (tested: 1000 nM Fab)
- binding result [4]: no binding (tested: 1000 nM Fab)
- Fold improvement in KD [5]: 1 fold
- Kd [5]: 175 nM
- koff [5]: 0.279 s⁻¹
- kon [5]: 1.59e+06 M⁻¹ s⁻¹

B8: 57BJN (Fab, V domains shown)
VH: EVQLVQSGAEVKKPGASVKVSCKASGYTFTSYDMHWVRQAPGQGLEWMGRIDPQSGGIKYAQKFQGRATLTVDTSTSTAYMELSRLRSDDTAVYYCARWDYGGYFDVWGQGTLVTVSS
VL: DIQMTQSPSSLSASVGDRVTITCRASQDITNYLNWYQQKPGKAVKLLIYYTSRLHSGVPSRFSGSGSGTDYTLTISSLQPEDFATYFCQQGDTLPWTFGQGTKLEIKR
notes: also called VH W33D / VL (57BJN)
- binding result [3]: no binding (tested: 1000 nM Fab)
- binding result [4]: no binding (tested: 1000 nM Fab)
- Fold improvement in KD [5]: 6 fold
- Kd [5]: 13.4 nM
- koff [5]: 0.0178 s⁻¹
- kon [5]: 1.33e+06 M⁻¹ s⁻¹

B9: 59BJN (Fab, V domains shown)
VH: EVQLVQSGAEVKKPGASVKVSCKASGYTFTSYQVHWVRQAPGQGLEWMGRIDPQSGGIKYAQKFQGRATLTVDTSTSTAYMELSRLRSDDTAVYYCARWDYGGYFDVWGQGTLVTVSS
VL: DIQMTQSPSSLSASVGDRVTITCRASQDIYNYLNWYQQKPGKAVKLLIYYTSRLHSGVPSRFSGSGSGTDYTLTISSLQPEDFATYFCQQGDTLPWTFGQGTKLEIKR
notes: also called VH W33Q M34V / VL T30Y (59BJN)
- binding result [3]: no binding (tested: 1000 nM Fab)
- binding result [4]: no binding (tested: 1000 nM Fab)
- Fold improvement in KD [5]: 7 fold
- Kd [5]: 11.7 nM
- koff [5]: 0.0263 s⁻¹
- kon [5]: 2.24e+06 M⁻¹ s⁻¹

B10: 58BJN (Fab, V domains shown)
VH: EVQLVQSGAEVKKPGASVKVSCKASGYTFTSYDMHWVRQAPGQGLEWMGRIDPQSGGIKYAQKFQGRATLTVDTSTSTAYMELSRLRSDDTAVYYCARYDHGGYFDVWGQGTLVTVSS
VL: DIQMTQSPSSLSASVGDRVTITCRASQDIYNYLNWYQQKPGKAVKLLIYYTSRLHSGVPSRFSGSGSGTDYTLTISSLQPEDFATYFCQQGDTLPWTFGQGTKLEIKR
notes: also called VH W33D W99Y Y101H / VL T30Y (58BJN)
- binding result [3]: no binding (tested: 1000 nM Fab)
- binding result [4]: no binding (tested: 1000 nM Fab)
- Fold improvement in KD [5]: 13 fold
- Kd [5]: 6.42 nM
- koff [5]: 0.0151 s⁻¹
- kon [5]: 2.35e+06 M⁻¹ s⁻¹

B11: 55BJN (Fab, V domains shown)
VH: EVQLVQSGAEVKKPGASVKVSCKASGYTFTSYDIHWVRQAPGQGLEWMGRIDPQSGGIKYAQKFQGRATLTVDTSTSTAYMELSRLRSDDTAVYYCARWDYGGYFDVWGQGTLVTVSS
VL: DIQMTQSPSSLSASVGDRVTITCRASQDITNYLNWYQQKPGKAVKLLIYYTSRLHSGVPSRFSGSGSGTDYTLTISSLQPEDFATYFCQQGDTLPWTFGQGTKLEIKR
notes: also called VH W33D M34I / VL (55BJN)
- binding result [3]: no binding (tested: 1000 nM Fab)
- binding result [4]: no binding (tested: 1000 nM Fab)
- Fold improvement in KD [5]: 3 fold

B12: 56BJN (Fab, V domains shown)
VH: EVQLVQSGAEVKKPGASVKVSCKASGYTFTSYDIHWVRQAPGQGLEWMGRIDPYSGGIKYAQKFQGRATLTVDTSTSTAYMELSRLRSDDTAVYYCARWDYGGYFDVWGQGTLVTVSS
VL: DIQMTQSPSSLSASVGDRVTITCRASQDITNYLNWYQQKPGKAVKLLIYYTSRLHSGVPSRFSGSGSGTDYTLTISSLQPEDFATYFCQQGDTLPWTFGQGTKLEIKR
notes: also called VH W33D M34I Q54Y / VL (56BJN)
- binding result [3]: no binding (tested: 1000 nM Fab)
- binding result [4]: no binding (tested: 1000 nM Fab)
- Fold improvement in KD [5]: 1 fold

B13: 62BJN (Fab, V domains shown)
VH: EVQLVQSGAEVKKPGASVKVSCKASGYTFTSYDMHWVRQAPGQGLEWMGRIDPYGGGIKYAQKFQGRATLTVDTSTSTAYMELSRLRSDDTAVYYCARYDHGGYFDVWGQGTLVTVSS
VL: DIQMTQSPSSLSASVGDRVTITCRASQDIYNYLNWYQQKPGKAVKLLIYYTSRLHSGVPSRFSGSGSGTDYTLTISSLQPEDFATYFCQQGDTLPWTFGQGTKLEIKR
notes: also called VH W33D Q54Y S55G W99Y Y101H / VL T30Y (62BJN)
- binding result [3]: no binding (tested: 1000 nM Fab)
- binding result [4]: no binding (tested: 1000 nM Fab)
- Fold improvement in KD [5]: 5 fold
- Kd [5]: 15.6 nM
- koff [5]: 0.032 s⁻¹
- kon [5]: 2.05e+06 M⁻¹ s⁻¹
